Source: US20070027089A1
Where no end group is shown, it is not given here. [ ]: non-standard residue; d: D form. Ahx = NCCCCCC(=O)O

Target: amyloid precursor protein APP695 in HEK 293-APP cells (human), P05067
Test: cell-based or functional assay

Sequence of amyloid precursor protein APP695 in HEK 293-APP cells (human), P05067 (P05067 18-770): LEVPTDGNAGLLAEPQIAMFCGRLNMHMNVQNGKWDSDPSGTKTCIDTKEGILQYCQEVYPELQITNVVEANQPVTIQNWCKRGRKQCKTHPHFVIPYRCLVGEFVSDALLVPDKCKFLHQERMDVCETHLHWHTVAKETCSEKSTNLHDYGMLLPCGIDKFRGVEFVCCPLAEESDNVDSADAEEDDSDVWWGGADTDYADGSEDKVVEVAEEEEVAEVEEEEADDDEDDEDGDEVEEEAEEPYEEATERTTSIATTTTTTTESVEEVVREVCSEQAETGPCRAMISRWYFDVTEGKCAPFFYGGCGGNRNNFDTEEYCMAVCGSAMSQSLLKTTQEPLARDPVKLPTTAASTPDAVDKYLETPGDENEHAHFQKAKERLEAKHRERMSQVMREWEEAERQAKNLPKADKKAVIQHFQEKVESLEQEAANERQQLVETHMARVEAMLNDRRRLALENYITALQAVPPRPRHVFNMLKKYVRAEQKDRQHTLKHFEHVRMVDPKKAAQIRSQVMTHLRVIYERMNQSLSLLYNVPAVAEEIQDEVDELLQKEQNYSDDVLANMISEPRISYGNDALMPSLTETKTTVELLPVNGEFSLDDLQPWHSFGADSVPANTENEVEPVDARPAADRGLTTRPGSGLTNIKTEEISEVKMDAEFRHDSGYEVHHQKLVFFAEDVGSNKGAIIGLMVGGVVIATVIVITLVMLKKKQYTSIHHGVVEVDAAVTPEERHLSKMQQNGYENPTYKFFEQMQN

B1: 6-aminohexanoic acid-c-Sub M ΔN3C1 (NH2-(CH2)5-CO-Cys-Ile-Gln-Ile-His-Phe-NH2) (peptide)
peptide: [Ahx]CIQIHF-NH2
modifications: N-terminus assumed
SMILES: CC[C@H](C)[C@H](NC(=O)[C@H](CCC(N)=O)NC(=O)[C@@H](NC(=O)[C@H](CS)NC(=O)CCCCCN)[C@@H](C)CC)C(=O)N[C@@H](Cc1c[nH]cn1)C(=O)N[C@@H](Cc1ccccc1)C(N)=O
  reduction of Aβ released from HEK293-APP cells (sandwich ELISA) at 6.25 µM peptide: 70%
